Experiment [1] concerns the target T1, LILRB1-ECD-HIS (SinoBiological Cat #: 16014-H02H) (human, UniProt Q8NHL6 24-461).
T1 construct: Bought protein; also called monomeric antigen LILRB1-ECD-HIS; not shown: His tag
Briefly: BLI epitope binning (Gator), monomeric antigen.

Experiment [2] concerns the target T2, LILRB2-ECD-HIS (SinoBiological Cat #: 14132-H02H) (human, UniProt Q8N423 22-460).
T2 construct: Bought protein; also called monomeric antigen LILRB2-ECD-HIS; not shown: His tag
Briefly: BLI epitope binning (Gator), monomeric antigen.

Experiment [3] has as its target T3, LILRA1 expressed on cells (human, UniProt O75019 17-489).
T3 construct: whole, on cells; GFP-tagged; also called human LILRA1; CHO-LILRA1
Briefly: flow cytometry on CHO-LILRA1 cells (CHO-RA1), titrated antibody, labelled anti-human Fc, gMFI. A general note: In flow cytometry, cells or beads pass a laser one at a time.

The target of experiment [4] is T4, human LILRB2 expressed on cells (human, UniProt Q8N423 22-597).
T4 construct: In 293T cells it was expressed from pCMV3-LILRB2-GFP; also called CHO-LILRB2; Jurkat-LILRB2
T4 sequence (Q8N423 other isoform, or with tags, fused parts or gaps limits assumed): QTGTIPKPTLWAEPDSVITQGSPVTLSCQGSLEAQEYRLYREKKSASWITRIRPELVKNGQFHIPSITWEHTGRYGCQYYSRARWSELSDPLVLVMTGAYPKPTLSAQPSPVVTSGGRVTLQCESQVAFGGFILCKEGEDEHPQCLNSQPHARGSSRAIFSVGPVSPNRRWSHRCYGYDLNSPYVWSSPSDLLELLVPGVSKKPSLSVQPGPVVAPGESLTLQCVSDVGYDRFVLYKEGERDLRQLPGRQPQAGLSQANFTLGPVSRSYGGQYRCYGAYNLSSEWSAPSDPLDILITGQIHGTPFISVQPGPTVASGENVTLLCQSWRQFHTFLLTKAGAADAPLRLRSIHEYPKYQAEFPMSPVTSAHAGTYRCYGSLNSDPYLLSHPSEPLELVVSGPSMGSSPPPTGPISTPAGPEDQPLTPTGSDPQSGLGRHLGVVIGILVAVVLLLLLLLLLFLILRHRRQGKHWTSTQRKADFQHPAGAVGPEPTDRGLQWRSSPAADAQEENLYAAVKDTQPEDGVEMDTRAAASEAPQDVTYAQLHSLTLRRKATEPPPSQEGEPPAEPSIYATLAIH
The experiment is described as follows: flow cytometry, Jurkat-LILRB2 cells.

The target in experiment [5] is T5, LILRB4 expressed on 293T cells (UniProt Q8NHJ6 22-448, limits assumed).
T5 construct: whole, on cells; GFP-tagged, transient
Briefly: flow cytometry on 293T cells transiently expressing LILRB4, APC anti-human Fc; gMFI as fold to IgG staining.

Experiment [6] concerns the target T4, human LILRB2 expressed on cells. The experiment is described as follows: flow cytometry, Jurkat-LILRB2 cells; blocked ligand: APC HLA-G monomer tetramer.
Experiment [7] concerns the target T6, human LILRB1 expressed on cells (human, UniProt Q8NHL6 24-650).
T6 construct: In 293T cells it was expressed from pCMV3-LILRB1-GFP; also called CHO-LILRB1; Jurkat-LILRB1
The experiment is described as follows: flow cytometry on CHO-LILRB1 cells, non-linear fit of the curves of FIG. 26A.

Experiment [8] deals with T6, human LILRB1 expressed on cells. The experiment is described as follows: flow cytometry on CHO-LILRB1 cells (CHO-RB1), titrated antibody, labelled anti-human Fc, gMFI.
The target is the same in experiment [9]. The experiment is described as follows: flow cytometry, CHO-LILRB1 cells; blocked ligand: APC HLA-G trimer tetramer.
The target in experiment [10] is T7, LILRA5 expressed on 293T cells (UniProt A6NI73 42-299, limits assumed).
T7 construct: whole, on cells; GFP-tagged, transient
T7 sequence (A6NI73 42-299 limits assumed): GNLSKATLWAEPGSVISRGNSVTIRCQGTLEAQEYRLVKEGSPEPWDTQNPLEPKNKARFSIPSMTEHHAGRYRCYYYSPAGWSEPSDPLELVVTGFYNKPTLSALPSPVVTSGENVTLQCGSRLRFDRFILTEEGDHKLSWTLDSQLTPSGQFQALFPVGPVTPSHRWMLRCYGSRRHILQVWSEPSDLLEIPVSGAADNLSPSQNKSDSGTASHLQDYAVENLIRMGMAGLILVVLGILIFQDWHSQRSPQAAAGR
The experiment is described as follows: flow cytometry on 293T cells transiently expressing LILRA5, antibody 5 µg/mL, APC anti-human Fc; gMFI as fold to IgG staining.

Experiment [11] addresses T4, human LILRB2 expressed on cells. Briefly: flow cytometry, CHO-LILRB2 cells.
Experiment [12] concerns the target T6, human LILRB1 expressed on cells. The experiment is described as follows: flow cytometry, Jurkat-LILRB1 cells.
For experiment [13] the target is unchanged. The experiment is described as follows: flow cytometry, CHO-LILRB1 cells.
The target in experiment [14] is T2, LILRB2-ECD-HIS (SinoBiological Cat #: …). The experiment is described as follows: SPR (Carterra), LILRB2-ECD-his.
Experiment [15] concerns the target T1, LILRB1-ECD-HIS (SinoBiological Cat #: …). Briefly: BLI (Gator), RB1-ECD-his.
Experiment [16] deals with T6, human LILRB1 expressed on cells. Briefly: flow cytometry, CHO-LILRB1 cells. The source holds these as a separate data set.
For experiment [17], the target named is T8, LILRA3 expressed on 293T cells (UniProt Q8N6C8 24-439, limits assumed).
T8 construct: whole, on cells; GFP-tagged, transient
T8 sequence (Q8N6C8 24-439 limits assumed): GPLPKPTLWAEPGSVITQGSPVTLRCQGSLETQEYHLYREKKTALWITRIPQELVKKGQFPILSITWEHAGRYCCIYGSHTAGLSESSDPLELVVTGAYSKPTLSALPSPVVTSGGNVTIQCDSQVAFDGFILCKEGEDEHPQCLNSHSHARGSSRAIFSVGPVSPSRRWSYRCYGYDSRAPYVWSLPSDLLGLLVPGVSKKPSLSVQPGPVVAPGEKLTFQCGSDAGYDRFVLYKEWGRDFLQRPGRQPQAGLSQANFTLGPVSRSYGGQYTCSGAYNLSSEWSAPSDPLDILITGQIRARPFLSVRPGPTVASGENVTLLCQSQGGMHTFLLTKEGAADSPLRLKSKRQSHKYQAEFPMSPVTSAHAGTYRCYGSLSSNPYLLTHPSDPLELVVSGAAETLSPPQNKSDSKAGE
Briefly: flow cytometry on 293T cells transiently expressing LILRA3, APC anti-human Fc; gMFI as fold to IgG staining.

The target of experiment [18] is T6, human LILRB1 expressed on cells. Briefly: flow cytometry, Jurkat-LILRB1 cells; blocked ligand: APC HLA-G trimer tetramer.
Experiment [19] addresses T1, LILRB1-ECD-HIS (SinoBiological Cat #: …). The experiment is described as follows: SPR (Carterra), LILRB1-ECD-his.
Experiment [20] has as its target T3, LILRA1 expressed on cells. Briefly: flow cytometry on CHO-LILRA1 cells, non-linear fit of the curves of FIG. 26E.
Experiment [21] addresses T2, LILRB2-ECD-HIS (SinoBiological Cat #: …). The experiment is described as follows: BLI (Gator), RB2-ECD-his.
Experiment [22] concerns the target T4, human LILRB2 expressed on cells. The experiment is described as follows: flow cytometry on CHO-LILRB2 cells (CHO-RB2), titrated antibody, labelled anti-human Fc, gMFI.
Experiment [23] addresses T9, LILRA4 expressed on 293T cells (UniProt P59901 24-499, limits assumed).
T9 construct: whole, on cells; GFP-tagged, transient
Briefly: flow cytometry on 293T cells transiently expressing LILRA4, APC anti-human Fc; gMFI as fold to IgG staining.

The target of experiment [24] is T10, LILRA6 expressed on cells (human, UniProt Q6PI73 24-481).
T10 construct: whole, on cells; GFP-tagged; also called human LILRA6; CHO-LILRA6
The experiment is described as follows: flow cytometry on 293T cells transiently expressing LILRA6, APC anti-human Fc; gMFI as fold to IgG staining.

Experiment [25] addresses T11, LILRA2 expressed on 293T cells (UniProt Q8N149 24-483, limits assumed).
T11 construct: whole, on cells; GFP-tagged, transient
Briefly: flow cytometry on 293T cells transiently expressing LILRA2, APC anti-human Fc; gMFI as fold to IgG staining.

Experiment [26] addresses T4, human LILRB2 expressed on cells. Briefly: flow cytometry on CHO-LILRB2 cells, non-linear fit of the curves of FIG. 26B.
Experiment [27] concerns the target T12, LILRB3 expressed on cells (human, UniProt O75022 24-631).
T12 construct: whole, on cells; Expressed with a GFP tag from the bought plasmid; also called human LILRB3; CHO-LILRB3
Briefly: flow cytometry on 293T cells transiently expressing LILRB3, APC anti-human Fc; gMFI as fold to IgG staining.

The target in experiment [28] is T13, LILRB5 expressed on 293T cells (UniProt O75023 24-590, limits assumed).
T13 construct: whole, on cells; GFP-tagged, transient
T13 sequence (O75023 24-590 limits assumed): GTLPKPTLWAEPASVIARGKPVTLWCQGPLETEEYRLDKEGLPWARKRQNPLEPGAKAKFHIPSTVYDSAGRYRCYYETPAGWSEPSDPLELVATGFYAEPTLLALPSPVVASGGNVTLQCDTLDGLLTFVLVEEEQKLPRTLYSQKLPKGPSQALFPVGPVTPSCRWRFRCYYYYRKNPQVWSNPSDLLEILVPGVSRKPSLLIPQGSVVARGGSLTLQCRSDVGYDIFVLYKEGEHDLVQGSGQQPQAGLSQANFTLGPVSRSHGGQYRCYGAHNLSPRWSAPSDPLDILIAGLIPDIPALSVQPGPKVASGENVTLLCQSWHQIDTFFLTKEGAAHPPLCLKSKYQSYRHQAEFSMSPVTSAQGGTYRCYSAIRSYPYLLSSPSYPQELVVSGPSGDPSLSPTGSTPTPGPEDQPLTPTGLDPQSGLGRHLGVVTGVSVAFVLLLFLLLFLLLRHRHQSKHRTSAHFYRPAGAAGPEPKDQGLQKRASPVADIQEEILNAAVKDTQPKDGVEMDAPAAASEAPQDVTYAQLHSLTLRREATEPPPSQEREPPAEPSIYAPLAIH
The experiment is described as follows: flow cytometry on 293T cells transiently expressing LILRB5, APC anti-human Fc; gMFI as fold to IgG staining.

Experiment [29] addresses T1, LILRB1-ECD-HIS (SinoBiological Cat #: …). The experiment is described as follows: SPR (Carterra LSA), antibody captured, antigen injected.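 Further: kd obtained from kinetic analysis of antibody binding to the antigen, with association and dissociation phases fitted in the instrument software.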
Experiment [30] has as its target T2, LILRB2-ECD-HIS (SinoBiological Cat #: …). Described as above.
The target of experiment [31] is T6, human LILRB1 expressed on cells. Briefly: flow cytometry, Jurkat-LILRB1 cells; blocked ligand: APC HLA-G trimer tetramer. The source holds these as a separate data set.
For experiment [32], the target named is T14, cynomolgus monkey putative LILRB2 (antigen of the Gator measurement) (cynomolgus monkey).
T14 construct: also called cynomolgus monkey LILRB2
Briefly: BLI (Gator), cyno RB2-his.

Experiment [33] concerns the target T6, human LILRB1 expressed on cells. The experiment is described as follows: flow cytometry, Jurkat-LILRB1 cells. The source holds these as a separate data set.
Experiment [34] deals with T4, human LILRB2 expressed on cells. Briefly: flow cytometry, Jurkat-LILRB2 cells. The source holds these as a separate data set.

T3 sequence (O75019 17-489): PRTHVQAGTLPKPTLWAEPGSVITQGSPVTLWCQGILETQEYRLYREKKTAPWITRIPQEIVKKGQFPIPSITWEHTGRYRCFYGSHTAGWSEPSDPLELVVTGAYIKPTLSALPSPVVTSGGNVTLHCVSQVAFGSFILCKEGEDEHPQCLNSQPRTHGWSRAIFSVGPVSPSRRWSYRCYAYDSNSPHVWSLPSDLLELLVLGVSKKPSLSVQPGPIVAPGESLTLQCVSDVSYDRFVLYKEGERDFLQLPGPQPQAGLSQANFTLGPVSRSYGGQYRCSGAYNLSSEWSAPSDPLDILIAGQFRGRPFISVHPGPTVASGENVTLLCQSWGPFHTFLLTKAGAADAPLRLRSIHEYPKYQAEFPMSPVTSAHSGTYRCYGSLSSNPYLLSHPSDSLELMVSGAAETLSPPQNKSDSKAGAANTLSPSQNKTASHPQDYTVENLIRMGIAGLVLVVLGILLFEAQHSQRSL
T6 sequence (Q8NHL6 other isoform, or with tags, fused parts or gaps limits assumed): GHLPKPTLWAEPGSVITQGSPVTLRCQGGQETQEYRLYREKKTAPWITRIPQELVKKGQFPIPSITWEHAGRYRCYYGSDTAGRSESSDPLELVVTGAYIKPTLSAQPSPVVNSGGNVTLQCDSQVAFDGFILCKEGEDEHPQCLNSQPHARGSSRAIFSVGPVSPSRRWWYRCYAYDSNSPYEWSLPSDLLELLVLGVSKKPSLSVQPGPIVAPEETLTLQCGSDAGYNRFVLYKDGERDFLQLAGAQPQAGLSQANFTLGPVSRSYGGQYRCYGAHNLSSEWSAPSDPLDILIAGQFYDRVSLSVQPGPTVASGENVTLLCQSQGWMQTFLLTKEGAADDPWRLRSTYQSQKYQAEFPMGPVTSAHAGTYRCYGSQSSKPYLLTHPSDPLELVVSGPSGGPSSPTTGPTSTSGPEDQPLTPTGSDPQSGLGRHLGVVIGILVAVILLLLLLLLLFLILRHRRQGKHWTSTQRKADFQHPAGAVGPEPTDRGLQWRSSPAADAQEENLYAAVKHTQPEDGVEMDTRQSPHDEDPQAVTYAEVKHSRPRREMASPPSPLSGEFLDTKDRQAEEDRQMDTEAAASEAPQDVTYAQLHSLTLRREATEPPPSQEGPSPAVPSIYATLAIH
T1 sequence (Q8NHL6 other isoform, or with tags, fused parts or gaps H02H H02H): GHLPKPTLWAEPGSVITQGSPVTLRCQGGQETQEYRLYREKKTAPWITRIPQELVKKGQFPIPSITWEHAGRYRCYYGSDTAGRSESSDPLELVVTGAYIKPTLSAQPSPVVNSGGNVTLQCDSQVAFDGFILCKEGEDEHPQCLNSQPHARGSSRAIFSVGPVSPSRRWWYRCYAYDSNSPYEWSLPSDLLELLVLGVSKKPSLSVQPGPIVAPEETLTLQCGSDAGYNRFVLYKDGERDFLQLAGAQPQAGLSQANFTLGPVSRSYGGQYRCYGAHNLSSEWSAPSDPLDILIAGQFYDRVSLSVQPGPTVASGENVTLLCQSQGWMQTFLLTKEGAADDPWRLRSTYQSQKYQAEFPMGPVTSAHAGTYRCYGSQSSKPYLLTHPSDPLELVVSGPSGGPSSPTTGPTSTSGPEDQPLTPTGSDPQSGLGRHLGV
T2 sequence (Q8N423 other isoform, or with tags, fused parts or gaps H02H H02H): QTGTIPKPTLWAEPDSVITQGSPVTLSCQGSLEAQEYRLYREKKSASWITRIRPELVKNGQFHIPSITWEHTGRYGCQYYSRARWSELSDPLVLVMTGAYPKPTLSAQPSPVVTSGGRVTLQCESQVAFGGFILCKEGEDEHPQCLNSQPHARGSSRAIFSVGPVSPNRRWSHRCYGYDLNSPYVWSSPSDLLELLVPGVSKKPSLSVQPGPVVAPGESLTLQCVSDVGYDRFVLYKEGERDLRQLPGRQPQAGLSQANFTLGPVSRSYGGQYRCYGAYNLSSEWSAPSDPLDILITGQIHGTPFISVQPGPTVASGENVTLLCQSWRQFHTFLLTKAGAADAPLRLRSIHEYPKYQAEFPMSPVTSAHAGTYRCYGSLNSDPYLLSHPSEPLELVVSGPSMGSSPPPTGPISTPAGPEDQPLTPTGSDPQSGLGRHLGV
T11 sequence (Q8N149 24-483 limits assumed): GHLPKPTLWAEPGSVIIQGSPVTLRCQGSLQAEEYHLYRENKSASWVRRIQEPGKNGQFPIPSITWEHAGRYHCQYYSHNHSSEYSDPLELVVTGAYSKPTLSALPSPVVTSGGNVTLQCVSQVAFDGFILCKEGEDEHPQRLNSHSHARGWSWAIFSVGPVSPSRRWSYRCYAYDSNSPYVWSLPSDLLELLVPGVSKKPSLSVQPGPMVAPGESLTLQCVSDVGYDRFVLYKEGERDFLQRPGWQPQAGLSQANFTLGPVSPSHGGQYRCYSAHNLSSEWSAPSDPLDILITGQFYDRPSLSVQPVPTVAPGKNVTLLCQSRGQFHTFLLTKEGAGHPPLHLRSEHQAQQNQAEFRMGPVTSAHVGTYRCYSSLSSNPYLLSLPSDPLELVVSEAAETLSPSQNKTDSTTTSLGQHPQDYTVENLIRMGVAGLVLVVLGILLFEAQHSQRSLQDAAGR

B1: Anti-LILRB1/2 antibody Hz73D1.v1 (antibody, human IgG1, kappa, N297G, V domains shown)
VH: QVQLVQSGAEVKKPGASVKVSCKASGYTFTDYYINWVRQAPGQGLEWMGNVNPNDGGTTYNQKFKGRVTMTTDTSTSTAYMELRSLRSDDTAVYYCARREIYFYGTIYYYAMDYWGQGTLVTVSS
VL: DIQLTQSPSFLSASVGDRVTITCRASESVDYYGNSFMYWYQQKPGKAPKLLIYFASNLESGVPSRFSGSGSGTEFTLTISSLQPEDFATYYCQQNNEDPWTFGGGTKVEIKR
notes: also called NGM707
For B1, the binding result in [1] and in experiment [2] was “binds” each time.

B2: D2M002-026 (antibody, V domains shown)
VH: QVQLQQPGAELMKPGASVKISCKATGYTFSSYWIEWVKQRPGHGLEWIGEILPGDGSTNYNAKFKGQATFTADTSSNTAYMQFSSLTSEDSAVYYCARSGAGGYDSGAFAYWGQGTLVTVSS
VL: DIVLTQSPASLAVSLGQRATISCRASESVDTYGNSFMHWYQQKPGQPPKLLVYRTSNLESGIPARFSGSGSGTDFTLTINPVEADDVATYYCQQSNEDPWTFGGGTKLEIK
notes: Hit; also called clone #26
With B2, the “EC50 (read off the curve)” value in experiment [3] was around 0.09 µg/mL; in [8], around 0.4 µg/mL; in [22], around 0.2 µg/mL. Besides, the EC50 in experiment [4] was found to be 0.106 µg/mL; in experiment [7], 0.4 µg/mL; in experiment [11], 2.63 µg/mL; in [12], 1.94 µg/mL; in experiment [13] it was 1.02 µg/mL; in [16] it was 0.818 µg/mL. Besides, the EC50 in [20] worked out at 0.0877 µg/mL; in experiment [26], 0.18 µg/mL. The binding result in experiment [5] is “no binding (tested: 5 µg/mL)”; in experiment [10] it was “binds”; in experiment [17] it was “no binding (tested: 5 µg/mL)”; in experiment [23], “no binding (tested: 5 µg/mL)”; in [24], “no binding (tested: 5 µg/mL)”; in [25], “no binding (tested: 5 µg/mL)”. The binding result in experiment [27] and in experiment [28] was “no binding (tested: 5 µg/mL)” throughout. Moreover, the IC50 in experiment [6] came out at 0.023 µg/mL; in experiment [9], 0.197 µg/mL; in experiment [18], 0.34 µg/mL. Also, the MaxMFI in experiment [7] amounted to 113000; in experiment [20], 28100; in experiment [26] it was 31800. The “gMFI (max)” value in experiment [11] was 35500; in [16] it was 43200. In addition, the Kd in experiment [14] amounted to 0.0608 nM; in experiment [15], 0.689 nM; in experiment [19] it was 0.382 nM; in experiment [21], 0.103 nM; in [29], 0.737 nM; in [30], 0.0286 nM. The koff in [14] is 4.53e-05 s⁻¹; in [19], 2.79e-05 s⁻¹. For the same molecule, the figures for the kon in experiment [14] and in experiment [19] were 745000 M⁻¹ s⁻¹ and 73100 M⁻¹ s⁻¹, respectively.

B3: D2M002-103 (antibody, V domains shown)
VH: QVQLVQSGAEVKKPGASVKVSCKASGYTFTRYVMHWVRQAPGQRLEWMGWINPNNEETKYSQKFKGRVTLTRDTSASTAYMELSSLRSEDTAVYYCARADLEILPYYDHARYAMDYWGQGTLVTVSS
VL: DIQMTQSPSSVSASVGDRVTITCRASENIYSHLAWYQQKPGKAPKLLVYNAKSLQSGVPSRFSGSGSGTDFTLTISSLQPEDFATYYCQHFWSTPPTFGGGTKVEIK
notes: also called P212_F01
As to B3, the EC50 in experiment [4] was found to be 0.065 µg/mL; in experiment [12] it was 0.136 µg/mL. The IC50 in experiment [6] amounted to 0.009 µg/mL; in experiment [18], 0.07 µg/mL. Further, in experiment [31], the “IC50 (read off the curve)” value is around 0.07 µg/mL. The Kd was 0.165 nM in experiment [14]; 1.03 nM in experiment [32]; 1.1 nM in [15]; 4.9 nM in experiment [19]; 0.136 nM in experiment [21]. In addition, the values for the koff in [14] and in experiment [19] were 0.000129 s⁻¹ and 0.00101 s⁻¹, respectively. Besides, the values for the kon in experiment [14] and in experiment [19] were 781000 M⁻¹ s⁻¹ and 206000 M⁻¹ s⁻¹, respectively. In addition, the “EC50 (read off the curve)” value in [33] was around 0.1 µg/mL; in [34], around 0.06 µg/mL.

B4: Anti-LILRB1 antibody 15G8 (antibody, human IgG4 S228P, kappa)
heavy: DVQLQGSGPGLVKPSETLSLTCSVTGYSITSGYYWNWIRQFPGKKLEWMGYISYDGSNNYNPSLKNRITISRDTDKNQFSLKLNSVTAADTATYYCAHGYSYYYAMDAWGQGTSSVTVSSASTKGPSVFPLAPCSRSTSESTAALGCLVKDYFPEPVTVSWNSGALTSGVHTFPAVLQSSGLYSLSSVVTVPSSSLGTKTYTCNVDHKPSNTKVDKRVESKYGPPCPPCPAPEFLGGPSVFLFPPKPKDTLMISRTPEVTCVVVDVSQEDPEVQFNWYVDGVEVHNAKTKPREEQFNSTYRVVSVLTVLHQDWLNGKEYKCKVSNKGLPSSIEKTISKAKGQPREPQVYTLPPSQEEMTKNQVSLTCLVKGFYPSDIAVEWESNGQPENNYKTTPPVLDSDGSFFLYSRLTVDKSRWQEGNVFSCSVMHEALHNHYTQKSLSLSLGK
light: DIQMTQSPSSLSASVGDRVTITCRTSQDISNYLNWYQQKPGKAVKLLISYTSRLHSGVPSRFSGSGSGTDYTLTISSLQPEDFATYYCQQGNTLPTFGQGTKLEIKRTVAAPSVFIFPPSDEQLKSGTASVVCLLNNFYPREAKVQWKVDNALQSGNSQESVTEQDSKDSTYSLSSTLTLSKADYEKHKVYACEVTHQGLSSPVTKSFNRGEC
notes: also called BND-22
Regarding B4, the binding result in experiment [1] is reported as “binds”.

The EC50 (read off the curve) is the concentration that produces a half-maximal response. A word on the EC50: it is the concentration giving half of the maximal effect. In general, IC50 refers to the concentration that gives 50% inhibition. What is called Kd is a measure of binding affinity in units of concentration. For orientation: koff means a measure of how fast the partners let go of each other. The kon is the second-order rate constant of association.
